Experimental data from US20180258172A1.

Tests used:
[1] = target: human zB7H6 (full-length, on cells) (human) (UniProt Q68D85); assay: competition flow cytometry, zB7H6-transfected P815 cells, 100-fold mass excess of isotype control antibody against NKp30/mFc2-biotin (no competition)
[2] = target: human zB7H6 (full-length, on cells) (human) (UniProt Q68D85); assay: competition flow cytometry, zB7H6-transfected P815 cells, 100-fold mass excess of isotype control antibody (no competition)

Sequence of human zB7H6 (full-length, on cells) (human) (Q68D85 25-454): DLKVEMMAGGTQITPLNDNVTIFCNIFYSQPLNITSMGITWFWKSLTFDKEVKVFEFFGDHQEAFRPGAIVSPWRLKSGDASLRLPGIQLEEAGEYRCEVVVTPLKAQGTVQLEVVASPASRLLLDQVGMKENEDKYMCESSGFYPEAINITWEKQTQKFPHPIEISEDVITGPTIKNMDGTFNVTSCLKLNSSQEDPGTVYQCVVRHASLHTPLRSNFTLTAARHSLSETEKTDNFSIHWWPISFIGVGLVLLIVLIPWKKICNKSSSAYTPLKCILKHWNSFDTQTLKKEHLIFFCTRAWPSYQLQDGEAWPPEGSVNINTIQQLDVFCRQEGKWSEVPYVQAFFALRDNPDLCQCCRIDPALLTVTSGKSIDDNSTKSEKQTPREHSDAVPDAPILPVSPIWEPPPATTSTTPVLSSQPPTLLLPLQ

MFI of NKp30/mFc2-biotin in the presence of the competitor [1]: 775
MFI of anti-zB7H6-A647 in the presence of the competitor [2]: 500
Substance: isotype control antibody
